Laboratory results reported in patent US20190359687A1 (Bayer, published 2019).
Residue numbers refer to the chain shown, from its start. Numbers in names are those of the source.

T1: human glycophorin A on human red blood cells or red blood cell membranes (human, UniProt P02724 20-150)
T1 construct: whole, on cells; also called hRBC; human RBC membranes
T1 sequence (looked up): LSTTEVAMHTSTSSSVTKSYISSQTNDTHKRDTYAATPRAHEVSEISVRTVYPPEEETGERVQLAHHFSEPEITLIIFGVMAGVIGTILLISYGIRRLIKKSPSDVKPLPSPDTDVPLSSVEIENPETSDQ

T2: native human glycophorin A protein (human, UniProt P02724 20-150)
T2 construct: mature; also called Hu-nat GPA
T2 sequence (looked up): T1 sequence (looked up)

T3: recombinant human glycophorin A ectodomain protein (human, UniProt P02724 20-91)
T3 construct: 72 amino acids of the extracellular region; also called Hu-rec GPA
T3 sequence: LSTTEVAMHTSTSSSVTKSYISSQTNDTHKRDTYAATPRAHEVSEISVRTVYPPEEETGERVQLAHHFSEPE

B1: TPP-5697, Hu6C12-24 Fab variant VH: (D66G, L70M, T72R) (Fab, V domains shown)
VH: EVQLVQSGAEVKKPGASVKVSCKASGYTFTTYTIHWVRQAPGQGLEWIGYINPSSDYTRYNPKFKGRVTMTRDKSTSTAYMELRSLRSDDTAVYYCQTGTRDYWGQGTTVTVSS
VL: DIQLTQSPSFLSASVGDRVTITCSAASSVSYIYWFQQKPGKAPKLLIYSTSTLPSGVPSRFSGSGSGTEYTLTISSLQPEDFATYYCHQRNSFPFTFGQGTKLEIKR
notes: Built on the parental Fab TPP-4935
B2: TPP-5674, Hu6C12-24 Fab variant VH: (I48M, L70M) (Fab, V domains shown)
VH: B1 VH with I48M, G66D, R72T
VL: B1 VL
notes: as for B1
B3: TPP-5836, Hu6C12-24 Fab variant VL: (S24R, A26S, S49A, P54Q, F95Y); VH: (I48M, L70M, T72R) (Fab, V domains shown)
VH: B1 VH with I48M, G66D
VL: B1 VL with S24R, A26S, S49A, P54Q, F95Y
notes: as for B1
B4: TPP-5338, Hu6C12-24 Fab variant VH: (E1Q, I48M, L70M, T72R, K74T, R84S, D89E) (Fab, V domains shown)
VH: B1 VH with E1Q, I48M, G66D, K74T, R84S, D89E
VL: B1 VL
notes: as for B1
B5: TPP-5337, Hu6C12-24 Fab variant VH: (Q97A, T98R) (Fab, V domains shown)
VH: B1 VH with G66D, M70L, R72T, Q97A, T98R
VL: B1 VL
notes: as for B1
B6: TPP-5696, Hu6C12-24 Fab variant VH: (D66G, L70M) (Fab, V domains shown)
VH: B1 VH with R72T
VL: B1 VL
notes: as for B1
B7: TPP-5356, Hu6C12-24 Fab variant VL: (F35Y, Y70F) (Fab, V domains shown)
VH: B1 VH with G66D, M70L, R72T
VL: B1 VL with F35Y, Y70F
notes: as for B1
B8: TPP-5838, Hu6C12-24 Fab variant VL: (S24R, A26S, S49A, P54Q, F95Y); VH: (I48M, D66G, L70M) (Fab, V domains shown)
VH: B1 VH with I48M, R72T
VL: B1 VL with S24R, A26S, S49A, P54Q, F95Y
notes: as for B1
B9: TPP-5699, Hu6C12-24 Fab variant VL: (S49A, P54Q) (Fab, V domains shown)
VH: B1 VH with G66D, M70L, R72T
VL: B1 VL with S49A, P54Q
notes: as for B1
B10: TPP-5700, Hu6C12-24 Fab variant VL: (S24R, A26S, F95Y) (Fab, V domains shown)
VH: B1 VH with G66D, M70L, R72T
VL: B1 VL with S24R, A26S, F95Y
notes: as for B1
B11: TPP-5837, Hu6C12-24 Fab variant VL: (S24R, A26S, S49A, P54Q, F95Y); VH: (I48M, D66G) (Fab, V domains shown)
VH: B1 VH with I48M, M70L, R72T
VL: B1 VL with S24R, A26S, S49A, P54Q, F95Y
notes: as for B1
B12: TPP-5701, Hu6C12-24 Fab variant VL: (S49A, P54Q, F95Y) (Fab, V domains shown)
VH: B1 VH with G66D, M70L, R72T
VL: B1 VL with S49A, P54Q, F95Y
notes: as for B1
B13: TPP-5675, Hu6C12-24 Fab variant VH: (I48M, L70M, T72R) (Fab, V domains shown)
VH: B1 VH with I48M, G66D
VL: B1 VL
notes: as for B1
B14: TPP-5678, Hu6C12-24 Fab variant VH: (I48M, D66G, L70M, T72R) (Fab, V domains shown)
VH: B1 VH with I48M
VL: B1 VL
notes: as for B1
B15: TPP-5698, Hu6C12-24 Fab variant VL: (S24R, A26S) (Fab, V domains shown)
VH: B1 VH with G66D, M70L, R72T
VL: B1 VL with S24R, A26S
notes: as for B1
B16: TPP-5695, Hu6C12-24 Fab variant VH: (L70M, T72R) (Fab, V domains shown)
VH: B1 VH with G66D
VL: B1 VL
notes: as for B1
B17: TPP-5703, Hu6C12-24 Fab variant VL: (N91S) (Fab, V domains shown)
VH: B1 VH with G66D, M70L, R72T
VL: B1 VL with N91S
notes: as for B1
B18: TPP-5676, Hu6C12-24 Fab variant VH: (I48M, D66G) (Fab, V domains shown)
VH: B1 VH with I48M, M70L, R72T
VL: B1 VL
notes: as for B1
B19: TPP-5704, Hu6C12-24 Fab variant VL: (N91D) (Fab, V domains shown)
VH: B1 VH with G66D, M70L, R72T
VL: B1 VL with N91D
notes: as for B1
B20: TPP-5677, Hu6C12-24 Fab variant VH: (I48M, D66G, L70M) (Fab, V domains shown)
VH: B1 VH with I48M, R72T
VL: B1 VL
notes: as for B1
B21: TPP-7791, affinity matured 6C12 Fab (Fab, V domains shown)
VH: B1 VH with T33A, I48M, D56G, G66H, Q97W
VL: DIQLTQSPSFLSASVGDRVTITCRASSSVRYIYWFQQKPGKAPKLLIYATSTLRSGVPSRFSGSGSGTEYTLTISSLQPEDFATYYCHQRNSFPYTFGQGTKLEIK
notes: Tested as Fab

Biological target: T1, human glycophorin A on human red blood …
Experiment: ELISA, Fab on coated human RBC membranes
Method: These membranes are prepared by first isolating red blood cells from citrated whole blood. Citrated whole blood is layered on to Ficol and centrifuged at low speed for 20 minutes to pellet the red blood cells. The supernatant containing plasma and other blood cells is discarded and the red blood cell pellet is subsequently washed 3 times in 10 cell volumes of phosphate buffered saline (PBS). A 10 ml pellet of purified red blood cells is resuspended in 30 ml of cold low osmorality 20 mM phosphate buffer (pH7.4) and incubated for 30 mins to break open the RBC. After Centrifugation at 10,000 rpm for 30 min at 5° C. the hemoglobin containing supernatant is discarded. To the membrane pellet another 30 ml of 20 mM phosphate buffer is added and the sample centrifuged again at 10,000 rpm for 30 min at 5° C. to pellet the membrane fraction. This wash and centrifugation step is repeated another 4 times. The red blood cell membranes are then resuspended in 20 mL of PBS to achieve an equivalent of approximately 2.5E9 cells/mL and stored frozen at −20° C. Binding of antibodies to RBC ghost can be measured by ELISA in which the RBC ghost suspension (5×10⁶ in 100 ul PBS) was added to each well of flat bottom 96-well ELISA microtiter plates (2HB, Immunolon) and the plates incubated overnight at 4° C. The plates were blocked with Starting blocking buffer (Thermo Fisher) for 2 hours at room temperature (RT). Antibodies or other test molecules were added to each well and incubated for 1.5 hours at RT. After 4 washes 100 ul of an appropriate detection antibody was added to each well and incubated for 1 hour at RT. After 4 washes the detection antibody was measured using appropriate detection reagents.

Binder | binding in ELISA relative to parental Fab
B1 | 1.1 relative to parental Fab
B2 | 0.7 relative to parental Fab
B3 | 4.7 relative to parental Fab
B4 | 0.5 relative to parental Fab
B5 | 0.3 relative to parental Fab
B6 | 1 relative to parental Fab
B7 | 0.7 relative to parental Fab
B8 | 9.3 relative to parental Fab
B9 | 3.1 relative to parental Fab
B10 | 2.5 relative to parental Fab
B11 | 9.1 relative to parental Fab
B12 | 4.7 relative to parental Fab
B13 | 0.7 relative to parental Fab
B14 | 0.8 relative to parental Fab
B15 | 0.6 relative to parental Fab
B16 | 0.9 relative to parental Fab
B17 | 0.7 relative to parental Fab
B18 | 0.7 relative to parental Fab
B19 | 0.9 relative to parental Fab
B20 | 0.8 relative to parental Fab

Biological target: T1, human glycophorin A on human red blood …
Experiment: SPR (Biacore), Fab on human RBC membranes;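 further: human RBC membranes captured on an L1 sensor chip, Fab fragments passed over as analyte, binding kinetics read by surface plasmon resonance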
Method: (§1) Kinetic analysis of the antibody binding to human red blood cell membranes was also performed using surface plasmon resonance (SPR) using a Biacore instrument. In this assay membranes prepared from human red blood cells were attached to a L1 sensor matrix and antibodies were flowed over the RBC membranes.
The binding kinetics of the affinity matured Fab antibodies was also measured.

Binder | binding result
B21 | binds

Biological target: T4, Cynomolgus monkey recombinant glycophorin A ectodomain (Cynomolgus monkey)
T4 construct: extracellular domain
Experiment: ELISA, Fab on coated recombinant cyno GPA ectodomain

Binder | binding in ELISA relative to parental Fab
B1 | 1.2 relative to parental Fab
B2 | 1.1 relative to parental Fab
B3 | 1 relative to parental Fab
B6 | 1.2 relative to parental Fab
B8 | 1.1 relative to parental Fab
B9 | 0.8 relative to parental Fab
B10 | 1.2 relative to parental Fab
B11 | 1.1 relative to parental Fab
B12 | 1 relative to parental Fab
B13 | 1 relative to parental Fab
B14 | 1.2 relative to parental Fab
B15 | 1 relative to parental Fab
B16 | 1.1 relative to parental Fab
B17 | 0.9 relative to parental Fab
B18 | 1.1 relative to parental Fab
B19 | 1 relative to parental Fab
B20 | 1.2 relative to parental Fab

Biological target: T2, native human glycophorin A protein
Experiment: ELISA, Fab on coated native human GPA

Binder | binding in ELISA relative to parental Fab
B1 | 1.2 relative to parental Fab
B2 | 1.4 relative to parental Fab
B3 | 5.1 relative to parental Fab
B4 | 0.5 relative to parental Fab
B5 | 0.1 relative to parental Fab
B6 | 1.3 relative to parental Fab
B7 | 0.7 relative to parental Fab
B8 | 5.6 relative to parental Fab
B9 | 3.8 relative to parental Fab
B10 | 2.5 relative to parental Fab
B11 | 5.2 relative to parental Fab
B12 | 4.6 relative to parental Fab
B13 | 0.8 relative to parental Fab
B14 | 1.2 relative to parental Fab
B15 | 1.6 relative to parental Fab
B16 | 0.9 relative to parental Fab
B17 | 2.1 relative to parental Fab
B18 | 1.3 relative to parental Fab
B19 | 1 relative to parental Fab
B20 | 1.8 relative to parental Fab

Biological target: T1, human glycophorin A on human red blood …
Experiment: SPR (Biacore), Fab over human RBC membranes, 1:1 fit;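 further: human RBC membrane preparations captured on an L1 sensor surface, with antibody passed over them as analyte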
Method: as §1

Binder | Kd | koff | kon
B3 | 3.6 nM | 0.0042 s⁻¹ | 1.2e+06 M⁻¹ s⁻¹
B8 | 3.1 nM | 0.004 s⁻¹ | 1.3e+06 M⁻¹ s⁻¹
B13 | 87 nM | 0.036 s⁻¹ | 420000 M⁻¹ s⁻¹
B14 | 37 nM | 0.041 s⁻¹ | 1.1e+06 M⁻¹ s⁻¹

Biological target: T3, recombinant human glycophorin A …
Experiment: ELISA, Fab on coated recombinant human GPA ectodomain

Binder | binding in ELISA relative to parental Fab
B1 | 1.3 relative to parental Fab
B2 | 1.5 relative to parental Fab
B3 | 4.1 relative to parental Fab
B4 | 0.4 relative to parental Fab
B5 | 0.1 relative to parental Fab
B6 | 1.2 relative to parental Fab
B7 | 0.6 relative to parental Fab
B8 | 4.7 relative to parental Fab
B9 | 3.2 relative to parental Fab
B10 | 2.4 relative to parental Fab
B11 | 4.5 relative to parental Fab
B12 | 3.9 relative to parental Fab
B13 | 1.1 relative to parental Fab
B14 | 1.1 relative to parental Fab
B15 | 1.7 relative to parental Fab
B16 | 1 relative to parental Fab
B17 | 1.1 relative to parental Fab
B18 | 1.5 relative to parental Fab
B19 | 1.1 relative to parental Fab
B20 | 1.8 relative to parental Fab
